Patent US20260078190A1 (SYSTIMMUNE, published 2026)
Like-named read-outs stand apart in the source and are kept apart here. Blank lines part the entries; values can stand above or below the binder they belong to.

Assays:
[1] = target: T1, SI-2C1, dimeric EGFR ECD fused to rabbit Fc (UniProt P00533 25-645, limits assumed); experiment: ELISA, plate coated with dimeric EGFR ECD-rabbit Fc (SI-2C1) at 3 µg/mL, antibody from 50 µg/mL in 3x dilutions, goat anti-human IgG-HRP, OD 450 nm
T1 construct: extracellular domain; Made in house; also called dimeric EGFR ECD reagent; not shown: rabbit Fc

[2] = target: T1, SI-2C1, dimeric EGFR ECD fused to …; experiment: ELISA, plate coated with dimeric EGFR ECD-rabbit Fc (SI-2C1) at 3 µg/mL, antibody from 10 µg/mL in 3x dilutions, goat anti-human IgG-HRP, OD 450 nm
[3] = target: T2, Her3 ECD (Sino Biological, 10201-H08H-10) (UniProt P21860 20-643); experiment: BLI (BLItz), same tip after the EGFR step; second step Her3 ECD 200 nM, 120 s association, 60 s dissociation
T2 construct: extracellular domain; Bought reagent; also called Her3 extracellular domain

[4] = target: T2, Her3 ECD (Sino Biological, …); experiment: as above; remark: listed apart in the source
[5] = target: T3, Extracellular domain (Met 1-Ser 645) of human EGFR with a C-terminal polyhistidine tag (human, UniProt P00533 25-645); experiment: BLI (Octet Red96), antibody on anti-human Fc sensor, average of the four curve fits
T3 construct: range 1-645; also called EGFR protein; EGFR ECD; not shown: C-terminal polyhistidine tag

[6] = target: T4, Monomeric EGFR ECD (SI-2R4) (UniProt P00533 25-645, limits assumed); experiment: ELISA on coated monomeric EGFR ECD (SI-2R4, 3 µg/mL), antibody after 3 days at 37 °C in 95% human serum, column 'Day 3 (37°C)'; M follows from the text, which gives the neighbouring 4.293e-010 as 429.3 pM
T4 construct: extracellular domain; Coated antigen of the serum stability ELISA

[7] = target: T5, EGFR on A431 and FaDu tumor cells (UniProt P00533 25-1210, limits assumed); experiment: flow cytometry titration on tumour cells (A431 by the legend paragraph 19, FaDu by Example 7 paragraph 83), PE anti-human IgG-Fc, geometric MFI; the table's head prints 'IC50 (nM)', Example 7 calls the values EC50 of binding; bispecific EGFR x Her3 on cells that carry both, the anti-Her3 curve (SI-1C1) stays near the baseline
T5 construct: whole, on cells; the cells are native tumor lines, not transfectants

[8] = target: T3, Extracellular domain (Met 1-Ser 645) of …; experiment: BLI (Octet Red96), antibody on anti-human Fc sensor, curve fit at EGFR 11.1 nM
[9] = target: T5, EGFR on A431 and FaDu tumor cells; experiment: flow cytometry titration on tumour cells (Fadu by the legend paragraph 18, A431 by Example 7 paragraph 83), PE anti-human IgG-Fc, geometric MFI; the table's head prints 'IC50 (nM)', Example 7 calls the values EC50 of binding; bispecific EGFR x Her3 on cells that carry both, the anti-Her3 curve (SI-1C1) stays near the baseline
[10] = target: T3, Extracellular domain (Met 1-Ser 645) of …; experiment: BLI (Octet Red96), antibody on anti-human Fc sensor, curve fit at EGFR 100 nM
[11] = target: T4, Monomeric EGFR ECD (SI-2R4); experiment: ELISA on coated monomeric EGFR ECD (SI-2R4), detection through Her3 ECD rabbit IgG1 (SI-1R1); antibody after 7 days in 95% human serum at 37 C; Day 7 at 37 C, 95% human serum
[12] = target: T4, Monomeric EGFR ECD (SI-2R4); experiment: ELISA on coated monomeric EGFR ECD (SI-2R4), detection through Her3 ECD rabbit IgG1 (SI-1R1); antibody in 95% human serum, Day 7 at 55 C (degradation condition)
[13] = target: T3, Extracellular domain (Met 1-Ser 645) of …; experiment: BLI (Octet Red96), antibody on anti-human Fc sensor, curve fit at EGFR 300 nM
[14] = target: T3, Extracellular domain (Met 1-Ser 645) of …; experiment: BLI (Octet Red96), antibody on anti-human Fc sensor, curve fit at EGFR 33.3 nM
[15] = target: T4, Monomeric EGFR ECD (SI-2R4); experiment: ELISA on coated monomeric EGFR ECD (SI-2R4), detection through Her3 ECD rabbit IgG1 (SI-1R1) and anti-rabbit IgG-HRP; antibody in 95% human serum, Day 0; Day 0, 95% human serum

EC50 (read off the curve) [1]: ~5 nM
B1: SI-1C5 (antibody, human IgG1, kappa, V domains shown)
VH: QVQLQQSGAEVKKPGSSVKVSCKASGYTFTNYYIYWVRQAPGQGLEWIGGINPTSGGSNFNEKFKTRVTITVDESTNTAYMELSSLRSEDTAFYFCARQGLWFDSDGRGFDFWGQGSTVTVSS
VL: DIQMTQSPSSLSASVGDRVTITCRSSQNIVHSNGNTYLDWYQQTPGKAPKLLIYKVSNRFSGVPSRFSGSGSGTDFTFTISSLQPEDIATYYCFQYSHVPWTFGQGTKLQITR
notes: Monospecific anti-EGFR IgG1 kappa

EC50 (read off the curve) [2]: ~0.2 nM
binding result [3]: binds
B2: SI-1X1 (bispecific antibody, human IgG1, kappa)
heavy: not shown
light: QSALTQPASVSGSPGQSITISCTGTSSDVGGYNFVSWYQQHPGKAPKLMIYDVSDRPSGVSDRFSGSKSGNTASLIISGLQADDEADYYCSSYGSSSTHVIFGGGTKLTVLRTVAAPSVFIFPPSDEQLKSGTASVVCLLNNFYPREAKVQWKVDNALQSGNSQESVTEQDSKDSTYSLSSTLTLSKADYEKHKVYACEVTHQGLSSPVTKSFNRGEC
notes: Tetravalent: anti-HER3 IgG1 with anti-EGFR scFv on the heavy chain C-terminus (heavy chain entry holds IgG1 heavy chain, connector and scFv)

binding result [4]: binds
B3: SI-1X3 (bispecific antibody, human IgG1, kappa)
heavy: not shown
light: B2 light
notes: Tetravalent: anti-HER3 IgG1 with anti-EGFR (1C5) scFv on the heavy chain C-terminus

EC50 (read off the curve) [2]: ~0.03 nM
binding result [3]: binds
B4: SI-1C4 (bispecific antibody, human IgG1, kappa, V domains shown)
VH: EVQLVESGGGLVQPGGSLRLSCAASGFTLSGDWIHWVRQAPGKGLEWVGEISAAGGYTDYADSVKGRFTISADTSKNTAYLQMNSLRAEDTAVYYCARESRVSFEAAMDYWGQGTLVTVSS
VL: DIQMTQSPSSLSASVGDRVTITCRASQNIATDVAWYQQKPGKAPKLLIYSASFLYSGVPSRFSGSGSGTDFTLTISSLQPEDFATYYCQQSEPEPYTFGQGTKVEIKR
notes: Control: two-in-one bispecific antibody against EGFR and HER3 (Schaefer et al. 2011 platform); also called IC4; benchmark antibody

EC50 (read off the curve) [1]: ~5 nM
binding result [4]: binds
B5: SI-1X4 (bispecific antibody, human IgG1, kappa)
heavy: not shown
light: DIQMTQSPSSLSASVGDRVTITCRSSQNIVHSNGNTYLDWYQQTPGKAPKLLIYKVSNRFSGVPSRFSGSGSGTDFTFTISSLQPEDIATYYCFQYSHVPWTFGQGTKLQITRTVAAPSVFIFPPSDEQLKSGTASVVCLLNNFYPREAKVQWKVDNALQSGNSQESVTEQDSKDSTYSLSSTLTLSKADYEKHKVYACEVTHQGLSSPVTKSFNRGEC
notes: Tetravalent: anti-EGFR (1C5) IgG1 with anti-HER3 scFv on the heavy chain C-terminus

Kd [5]: 18.4 nM
koff [5]: 0.00155 s⁻¹
kon [5]: 125000 M⁻¹ s⁻¹
EC50 [6]: 0.509 nM
EC50 [7]: 2.28 nM
Kd [8]: 6.19 nM
koff [8]: 0.00135 s⁻¹
kon [8]: 218000 M⁻¹ s⁻¹
EC50 [9]: 4.02 nM
Kd [10]: 21 nM
koff [10]: 0.00165 s⁻¹
kon [10]: 78800 M⁻¹ s⁻¹
EC50 [11]: 0.467 nM
EC50 [12]: 4.25 nM
Kd [13]: 36.9 nM
koff [13]: 0.00171 s⁻¹
kon [13]: 46300 M⁻¹ s⁻¹
Kd [14]: 9.44 nM
koff [14]: 0.00149 s⁻¹
kon [14]: 158000 M⁻¹ s⁻¹
EC50 [15]: 0.429 nM
B6: SI-1X4.2 (bispecific antibody)
heavy: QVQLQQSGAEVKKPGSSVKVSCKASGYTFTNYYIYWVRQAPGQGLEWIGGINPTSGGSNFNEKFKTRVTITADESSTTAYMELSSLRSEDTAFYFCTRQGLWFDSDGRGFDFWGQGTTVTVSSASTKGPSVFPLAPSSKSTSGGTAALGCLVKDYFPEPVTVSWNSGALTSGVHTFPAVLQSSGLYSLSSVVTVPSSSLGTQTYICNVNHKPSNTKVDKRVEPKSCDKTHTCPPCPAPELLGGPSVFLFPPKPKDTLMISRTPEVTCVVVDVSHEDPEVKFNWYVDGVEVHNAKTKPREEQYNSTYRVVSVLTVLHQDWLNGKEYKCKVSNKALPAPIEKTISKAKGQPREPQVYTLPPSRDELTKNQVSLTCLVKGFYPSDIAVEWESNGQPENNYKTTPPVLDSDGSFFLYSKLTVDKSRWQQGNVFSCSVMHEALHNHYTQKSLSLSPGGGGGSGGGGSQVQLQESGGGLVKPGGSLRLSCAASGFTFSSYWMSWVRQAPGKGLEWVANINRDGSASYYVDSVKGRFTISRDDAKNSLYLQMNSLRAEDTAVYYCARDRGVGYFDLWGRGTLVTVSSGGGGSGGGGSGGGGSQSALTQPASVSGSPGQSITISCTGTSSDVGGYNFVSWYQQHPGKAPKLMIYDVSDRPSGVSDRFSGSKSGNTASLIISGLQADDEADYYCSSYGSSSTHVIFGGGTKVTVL
light: B5 light
notes: Tetravalent: anti-EGFR (1C5.2) IgG1 with anti-HER3 scFv
